Assay results from a protein production outcome set (Wang et al. 2014).

Test: label from the status in PepcDB records

Sequence | protein production
MTGAETGSHFRRHALDAKPIGMSDHEQTKLIATAMNEGSPQAKALGFTTLEIGDAVALLKVPYRPEIIGDPETGVIAGGVVTTLLDHASGQAVHAAMETWTSIATLDLRIDYMRAAEPGLDVMARAHCYKLTRSVAFVRAVAYDRDPEDPIATGQATFMLDSSAGKKAGANLKPSRQQRSKTGGVDQ | failed
MTGCSHRFYYSHMIQTSVRSFEVGEDLASMAVDERISLLRSRMQSISKSGDFSLDYNCKTADKNIIPLSDPLSHVLPWGGLPRGMIVESTITPLLAILFIAQVSGSGRRVGVVGWPDLNYAGVLGYGGCYERIFAVPQQERTSLRVVTALAHGCDLVITRAGPTPRTYTPLQTQRFRNSLRSDAGCVIMMGDHVVSPAARLASAVVGYHGIGKGTGRIKAVEITVTGIAKGFYRTSRVIVGKHIAPAAEKTTMKVVLEHHHHHH | not failed
MTGEGTNYLIVGSDSRAGMSAEEKKKLHTGSAEGKRTDSMMILHTGDNGSTLVSLPRDSDVEIPTFKGSTSGKTYPGTGRHVKLNAAYAEDGPELLVRTIEYNTGLHIDHYVEIGFAGFANIVDSVGGVEMTLDKGFKDTFSGADFKAGKQTLNGEQALAFVRTRHAFAASDLERTKNQQKFLSALAHQVATPSTVLNPFKLYPTLSSGLDTLIVDKDMGLFDLADMFWAMKGVTGGDGTSMNMPISGSSGGNLVWDKAKVKALVNELKNDEKVTVSGNLEHHHHHH | not failed
MTGEVPGAAAQVFARAEALRDLGRPAEALGLVRQGLASDPHDVTLLVLATTLSLALEDYAQAADFATQAAAQAPGWALPLALLAQARRLADDPAGGKQAAQAALHLDPDEALAHFEVGLATALEAEQAPLWHRRRLLTEARAAASRVEALWPGQADGPALQALIDIVAGHWPQHEANIARALEREPDDSFAHNVRLLGLQARHSGETVPQLYERLRSRPDDVFARSQCVPTFPSRAGCGSIGGAGGGFFHCWW | failed
MTGGLLVTGGSGAIGGALCRIAARQHPVWVGYGAGAGRARALAAEITQAGGRAEPLALPLQDPAALETALAALPEPPASLALCAWPAPFVAPFGRQGEDLALQAAALAGCHALIATAWRLWWRRAGGGHVLAVLSAASEPPVARHMAAYVAQKAALRALLAAAAAELGPAGLRVSVVAPGFVETPMLGAFDPRLLERARADAGGRFLSPERVAQALVAALDAPPPAGTVQDIHLAEEVESDEKQTA | failed
MTGKEDEYEFEKTEKSSSLDEESTGSEVNEQKESYLDIINIIGSLMQDENYSLKNESILTINKILSFLNKEIYENKNFTEAWLIKGTVLYKTGKYNGAIDAFDGALESMSEKTSEEKLDTWIKSYGINYRYALKFKAFSLCKLGRYREALNALDEISAIYPEDPEIESHKNMLQTLENERLIRRTGNTQDQPPKHPGIWERRGKSSYKLGKYEEAVKEFDRCLESNPKDADILRNKGSALYMLGRYEEAIEAFNKSLELNPRDADAWNLKGSTLYMIGRPEEALRALDKALQRNPNIFEAWFNKGSILFELGKYKQALSAVENALRINAEDINALTLKTSILSGLKQDEK | failed
MTGPDRVALLVLAALVLDWLLGDPRWLPHPVVAVGRLVTALERQLRRLVTNERAAGVILLVLTVGITGGTAWLLVLGAGLVHPVAGFAVEALLGWTCLAARSLHGESKLVADALAAGDLAEARFFLSRIVGRDTAELTEPEIWRGVVETVAENTSDGVIAPLFWFMIGGAPLALAYKAVNTLDSMVGYKNERYLHFGWASARFDDLVNLLPARITGLLMVLSAPLAGLSGPGAWRIMRRDGRNHSSPNAGIPEAAAAGALGVRLGGMNVYFGRPVAKPTIGDPLNPLDRTAWRGAVRLMYGSEILLTGFMLCYLFVLERP | failed
MTGRLVLAATPMGDVGDASPRLRTALGTADVVAAEDTRRTKALASALDVTITGKVVSFYDQVETARLPALVADVASGKTVLLVTDAGMPSVSDPGYRLVSACVAEDLAVTCLPG | failed
MTGSVVVAGLGPGAQELITPEVSAALALATDIVGYAPYVARVAERDGLQRHASDNREELDRAGFALRLATEGRHVVIVSSGDPGVFAMAAALFEAIEAGDPSWRELDIRVLPGISAMFATAARIGAPLGHDFCAINLSDNLKPWETVEKRLRAAAEADFVIALYNPISKARPWQLGRAFELLRSIHPASVPVIFATAISDPRERIDVAPLGEAVPQRADMRTLVMIGSSQTRIIPRSSGADFVYTPRFSGAVS | failed
MTGTLLSFGHGYTARVLSRALAPQGWRIIGTSRNPDQMEAIRASGAEPLLWPGEEPSLDGVTHLLISTAPDSGGDPVLAALGDQIAARAAQFRWVGYLSTTAVYGDHDGAWVDETTPLTPTAARGRWRVMAEQQWQAVPNLPLHVFRLAGIYGPGRGPFSKLGKGGIRRIIKPGQVFSRIHVEDIAQVLAASMARPDPGAVYNVCDDEPVPPQDVIAYAAELQGLPLPPAVDFDKADLTPMARSFYSENKRVRNDRIKEELGVRLKYPNYRVGLEALQADAET | not failed
MTHIIIDGDACPVVDSIIDLTTETGIFVTIIRSFSHFSNQLYPPHVSTLYVDDGPDAVDYKIVQLSTKDDIVVTQDYGLASLLVDKVLIVMHHNGKIYNSKNIQQLLDKRYINAQIRKQGGRHKGPPPFTKQDQKVFEQSLLKVIHRIKELDLEHHHHHH | not failed
MTHLQGVRHAHRQVTAGVRGLTRHLCMVLVGCSLGLVAAGCTREPSSPTARASHSDAAPATPTASPAPASTPPPAADPSVLRVCADPGNMPLSNKAGEGFQNKIAQVVAEAMGRRLEYEWRTYYQRGLARSTINAGRCDVLMDLNSDFEMGLTTRPLYRSPYVLVTRKGLDLVPTSLDDPALKKLRLGVFQSSPARQALYEHGVSGEVKYLFYDSATAPEEHPGKLVERVAAGELDAAESWGPVAGYYAARNNLGVVPLNTIDDAVLEYSMAWAVARKNAALRDALNTALQQSAAKIDEILRSYHVPLVRCADCIVAGDLASHGPYVTPASAPKSTNAATSSQELAQLQLRIADGADPNQELAHALDAGDALRAAWLLRHGADANQPNLLGEPPLHQAIRNQEPDLVGLLIDAGARLDARDGNGWTALMKAAWGNDADSVQRLLARRAPLDTVSSDGWNALELAVSYADVGVVEALLKAGAKARGANRTGFTPVMFAVPREDPAILDALLKHGADVRGANQAGVTALMLAAASGREATAKRLLAAGADPAARNRDGKTAATLAQERGDAALAALLAPGKRSTTQ | failed
MTHNHHHQAVDNLLNVFSRASHDLTVVHSKLDKEFQQMYPANANPMKLIQRIKKLQEDVTLLKHQCLDLLSAKQDLIDKAQTTLVGNCNLIQKMNASLGESTNGDTDDALADFNQIIDEWTMQVRSRTVGETEDADKEDINKMLFSAICHTN | failed
MTHQVIDCLGVVLAGGLSSRMGQDKAQLKRLQKTTDPSAKSAHSMLDFSKQLLADAGIKNIVISGDNHQIPDRVPHAGPVGGIYSVLSHYLANSPEHLQPKALLILPVDLPLMTASALTELRLKGELSHKATFFSDRQKNRHHIPLYLPNNAFLNMFLMQAFHREELLANSKGNNKKNGPSVRAMLEQVPHQAIASLNNQVLFNTNTPEQWQQAQQKF | failed
MTHRIAPRCFSTIMLLCLLYTSPLDVIAQGQGGQGDIPVVNPTAPGGSTTTPTITQPSPPSLTFPGPTTPTGGYPPLDGTTPTGGYPPLYGTTPPGGGDVGGGGGGYGGGTPGGGGGGGGDTGAGAGGGGYGGGGDTGAGGGVGSGQWCIAKANASPTSLQVALDYACGYGGADCGQIQQGAACYEPNTIRDHASFAFNSYYQKHPGSDSCNFGGAAQLTSTDPSKTS | failed
MTHTIIHPSSSKSSFESPAMAYRINCQQGQTHLLWVTLRLTAPQTDVLDLHLPVWTPGSYLVREYARHLQDFTAATADGTPLEWWKCTKNQWQVACTPGLELKVRYAIYAHELSVRTSHFDRSHAYFNPAAVCLYVPQYRDQPLTITIEAPPDWRVTTPLEGWGEDGRTFWAPNYDLLVDSPFEVGTHGIYTFEVDGKPHELAVWGKGNFDPKRAIADIQRIIETEASFFGGLPYDRYVFILHLTHKGYGGLEHLNSCSLIFHRFGFQQPEQYCRFLCLVAHEFFHLWNIKRIRPQAFEVFDYDSENYTTSLWFVEGVTSYFDQLIPLWAGLFDAPTYLKLLSDSLNRYFHTPGRFVQSLSAASFDAWIKLYRPDENSINSQMSYYLKGELVALLLDLRIRLNFNHQRSLLDVLRRLWQRYCETGEGYTPDELWQTIETVADENLSTWREQFIEGTVELPLQEWLTKVGLELVPQDALPYTGLQFQQEQGSLQIKAVLRDSPAEQAGLGAGDEIIALNGWRVKAQDWSERLREYTAGETIHLTWFHDQQLQSGDLILGEPQPHYRLQCRADATPSQRAHLEAWLGATATQL | failed
MTIAILPARLANQIAAGEVVERPASVIKELIENSLDAGATSIHIDVDKGGIKKIKITDNGHGIVKEELTLALSRHATSKIKSLNDLEAIGSLGFRGEALASISSVARLTLTSKPQSQATAWQAVAEGRDMSVNIKPAAHPDGTSIEVLDLFFNTPARRKFLRTEKTEFNHIDEVVRRIALAHFEVSFSLTHNGNTVRQYRMASTHAQCIKRVAMVCGPKFIEHAVEVDCPHDNMTLSGWLAKPSFSRSQNDLCYSYVNGRMMRDKLINHAIRQAYADLLPPDTYPAFVLFLQLDHREVDVNVHPSKHEVRFHQSRYVHDFIYSVCHKALTSALAGEELFTTADSDLALVPEQSYSSLGANDRQGSHSSNTPTLNYPSADYIRPLQHVNDASNSQSTSSYSGYGQQHKTNAISKIAASNYQALMTPDKGSSAQVQNTSGSDQASAQKHETTTLQNSTDQSAFLSVHQPGYALYKTENGVRVLSLFKLAKSTYGKLVEQSWQNKTEQSDCPVECLVSQPLLLPVILSLSEQQLSFVLAEQEILSNAGIVFIQQHKNKIQIRQFPALLREQDVSNALIIIIEELIEKRSFTEGEALCETNLHQSIGLAMVLAEYDETQADILLRLTKKLFHEQLSQQLLLNSIPLDLTSHIKTLF | failed
MTIATIDIGGTGIKFASLTPDGKILDKTSISTPENLEDLLAWLDQRLSEQDYSGIAMSVPGAVNQETGVIDGFSAVPYIHGFSWYEALSSYQLPVHLENDANCVGLSELLAHPELENAACVVIGTGIGGAMIINGRLHRGRHGLGGEFGYMTTLAPAEKLNNWSQLASTGNMVRYVIEKSGHTDWDGRKIYQEAAAGNILCQEAIERMNRNLAQGLLNIQYLIDPGVISLGGSISQNPDFIQGVKKAVEDFVDAYEEYTVAPVIQACTYHADANLYGALVNWLQEEKQW | not failed
MTIAVLGATGMVGSRVITEAGARGHRVLALSRKPASEDPNVTLIAADANDPSAVREALAGVASNRAADAVVLTVRTHPVDQEFLIGATRTVLDIAAQLGIRVLVVGGAGALRSPDDHDLLVADNPTYVPAEWKTTAAAGIAQLRACQAHADADWVYLSPPALLEPGERTGRYRRGTDTLLTSADGRSWISAEDLAVAVVDELETPGRERLITVAHRDEPPSA | failed
MTIGEIIDCLNRRESIAIIAKRLEISPYTLSKKLRLIGYEYDGEQKKRIFVGDGEEPRHLQLQEATALQYAKTDYQLLIYEQLQSIYELLRKREEVIVPIMNISTEKKKRTFSINKEILAKLDVISESKGIQKSKLVEEALQQFLQQYDFNNTSHFDN | failed
MTIGYRDAAGDPLFPWLMEIKNSMEDLYAGKNSGYDLDKLLFDCISTYKKDSRYRNDLRFLKIWEDFERVYREIEETEICKGHSLLYEWYAIFLEVKGLWRRANSVYQTGLSRKAEPFDRLKEAHSLFLQRISKRTKASSLEKVGDDAQATDLETGFVNPWETSTVNGLIHKIKPQLVKYDGYHVSNKVFPGKANLSSLQNYSRNKIIEIGILFSYQSSLSPLQDKESFFLL | failed
